Measurements as given in article PMC10770632 (STAR Protocols, 2023).

Biological target: T1, D3 fragment of DROSHA (amino acids 390–1365) (human, UniProt Q9NRR4 390-1365)
T1 sequence (looked up): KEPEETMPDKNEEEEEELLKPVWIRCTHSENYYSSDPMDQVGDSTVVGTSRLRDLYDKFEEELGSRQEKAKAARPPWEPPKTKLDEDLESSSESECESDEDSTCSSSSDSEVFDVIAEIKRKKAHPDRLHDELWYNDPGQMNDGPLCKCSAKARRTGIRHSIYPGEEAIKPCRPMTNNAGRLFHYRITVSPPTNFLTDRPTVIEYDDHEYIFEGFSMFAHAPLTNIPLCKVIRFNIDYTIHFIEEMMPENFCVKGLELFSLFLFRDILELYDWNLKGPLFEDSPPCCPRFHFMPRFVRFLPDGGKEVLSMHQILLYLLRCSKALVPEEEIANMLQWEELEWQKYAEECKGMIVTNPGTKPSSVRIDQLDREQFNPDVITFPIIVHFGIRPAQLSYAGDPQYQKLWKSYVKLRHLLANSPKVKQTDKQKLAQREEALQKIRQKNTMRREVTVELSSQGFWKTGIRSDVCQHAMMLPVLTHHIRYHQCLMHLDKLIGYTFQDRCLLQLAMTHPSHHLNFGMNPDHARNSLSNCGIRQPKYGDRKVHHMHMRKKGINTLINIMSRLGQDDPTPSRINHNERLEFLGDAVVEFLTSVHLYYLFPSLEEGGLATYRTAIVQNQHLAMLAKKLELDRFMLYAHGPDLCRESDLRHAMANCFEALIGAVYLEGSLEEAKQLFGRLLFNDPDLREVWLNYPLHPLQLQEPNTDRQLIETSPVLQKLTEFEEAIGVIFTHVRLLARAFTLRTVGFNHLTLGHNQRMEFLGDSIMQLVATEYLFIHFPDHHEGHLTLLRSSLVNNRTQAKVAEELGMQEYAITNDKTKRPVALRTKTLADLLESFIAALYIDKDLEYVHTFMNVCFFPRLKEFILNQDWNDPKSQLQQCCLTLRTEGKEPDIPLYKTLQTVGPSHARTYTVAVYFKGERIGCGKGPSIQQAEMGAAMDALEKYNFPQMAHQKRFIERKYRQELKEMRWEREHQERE
Experiment: reconstitution by mixing purified proteins

- binding result: binds
B1: G4 fragment of DGCR8 (amino acids 285–750), dimeric (domain or fragment, human, UniProt Q8WYQ5 285-750, looked up)
chain: MTKIKTVLKSRGRPPTEPLPDGWIMTFHNSGVPVYLHRESRVVTWSRPYFLGTGSIRKHDPPLSSIPCLHYKKMKDNEEREQSSDLTPSGDVSPVKPLSRSAELEFPLDEPDSMGADPGPPDEKDPLGAEAAPGALGQVKAKVEVCKDESVDLEEFRSYLEKRFDFEQVTVKKFRTWAERRQFNREMKRKQAESERPILPANQKLITLSVQDAPTKKEFVINPNGKSEVCILHEYMQRVLKVRPVYNFFECENPSEPFGASVTIDGVTYGSGTASSKKLAKNKAARATLEILIPDFVKQTSEEKPKDSEELEYFNHISIEDSRVYELTSKAGLLSPYQILHECLKRNHGMGDTSIKFEVVPGKNQKSEYVMACGKHTVRGWCKNKRVGKQLASQKILQLLHPHVKNWGSLLRMYGRESSKMVKQETSDKSVIELQQYAKKNKPNLHILSKLQEEMKRLAEEREETR
